Starred links: 1 amine or outer side, 2 acyl side, 3 side chain; linkers in the order of their positions; H or OH if unused. Non-standard residues stand in square brackets, D forms with d. Groups on a side chain read outwards from the residue. No end group written: not given here. *: point of attachment. C20 diacid = O=C(O)CCCCCCCCCCCCCCCCCCC(=O)*; C18 diacid = O=C(O)CCCCCCCCCCCCCCCCC(=O)*; γGlu = O=C(O)[C@H](CCC(=O)[*:2])N[*:1]; αMeF = C[C@](N)(Cc1ccccc1)C(=O)O; AEEA = NCCOCCOCC(=O)O; Aib = CC(C)(N)C(=O)O
B1: Peptide 462 (peptide)
peptide: H[Aib]QGTFTSDVSK[αMeF]LDTK([AEEA-AEEA-γGlu-C18 diacid])RARDFVQWLLEAG-OH
modifications: N-terminus assumed
SMILES: CC(C)C[C@H](NC(=O)[C@H](CC(C)C)NC(=O)[C@H](Cc1c[nH]c2ccccc12)NC(=O)[C@H](CCC(N)=O)NC(=O)[C@@H](NC(=O)[C@H](Cc1ccccc1)NC(=O)[C@H](CC(=O)O)NC(=O)[C@H](CCCNC(=N)N)NC(=O)[C@H](C)NC(=O)[C@H](CCCNC(=N)N)NC(=O)[C@H](CCCCNC(=O)COCCOCCNC(=O)COCCOCCNC(=O)CC[C@H](NC(=O)CCCCCCCCCCCCCCCCC(=O)O)C(=O)O)NC(=O)[C@@H](NC(=O)[C@H](CC(=O)O)NC(=O)[C@H](CC(C)C)NC(=O)[C@](C)(Cc1ccccc1)NC(=O)[C@H](CCCCN)NC(=O)[C@H](CO)NC(=O)[C@@H](NC(=O)[C@H](CC(=O)O)NC(=O)[C@H](CO)NC(=O)[C@@H](NC(=O)[C@H](Cc1ccccc1)NC(=O)[C@@H](NC(=O)CNC(=O)[C@H](CCC(N)=O)NC(=O)C(C)(C)NC(=O)[C@@H](N)Cc1c[nH]cn1)[C@@H](C)O)[C@@H](C)O)C(C)C)[C@@H](C)O)C(C)C)C(=O)N[C@@H](CCC(=O)O)C(=O)N[C@@H](C)C(=O)NCC(=O)O
B2: Peptide 456 (peptide)
peptide: H[Aib]QGTFTSDVSK[αMeF]LDRK([AEEA-AEEA-γGlu-C20 diacid])RAQDFVRWLL[Aib]E-NH2
modifications: N-terminus assumed
SMILES: CC(C)C[C@H](NC(=O)[C@H](Cc1c[nH]c2ccccc12)NC(=O)[C@H](CCCNC(=N)N)NC(=O)[C@@H](NC(=O)[C@H](Cc1ccccc1)NC(=O)[C@H](CC(=O)O)NC(=O)[C@H](CCC(N)=O)NC(=O)[C@H](C)NC(=O)[C@H](CCCNC(=N)N)NC(=O)[C@H](CCCCNC(=O)COCCOCCNC(=O)COCCOCCNC(=O)CC[C@H](NC(=O)CCCCCCCCCCCCCCCCCCC(=O)O)C(=O)O)NC(=O)[C@H](CCCNC(=N)N)NC(=O)[C@H](CC(=O)O)NC(=O)[C@H](CC(C)C)NC(=O)[C@](C)(Cc1ccccc1)NC(=O)[C@H](CCCCN)NC(=O)[C@H](CO)NC(=O)[C@@H](NC(=O)[C@H](CC(=O)O)NC(=O)[C@H](CO)NC(=O)[C@@H](NC(=O)[C@H](Cc1ccccc1)NC(=O)[C@@H](NC(=O)CNC(=O)[C@H](CCC(N)=O)NC(=O)C(C)(C)NC(=O)[C@@H](N)Cc1c[nH]cn1)[C@@H](C)O)[C@@H](C)O)C(C)C)C(C)C)C(=O)N[C@@H](CC(C)C)C(=O)NC(C)(C)C(=O)N[C@@H](CCC(=O)O)C(N)=O
B3: Peptide 469 (peptide)
peptide: H[Aib]QGTFTSDVSK[αMeF]LDTK([AEEA-AEEA-γGlu-γGlu-C20 diacid])RAQDFVQWLLE[Aib]G-NH2
modifications: N-terminus assumed
SMILES: CC(C)C[C@H](NC(=O)[C@H](Cc1c[nH]c2ccccc12)NC(=O)[C@H](CCC(N)=O)NC(=O)[C@@H](NC(=O)[C@H](Cc1ccccc1)NC(=O)[C@H](CC(=O)O)NC(=O)[C@H](CCC(N)=O)NC(=O)[C@H](C)NC(=O)[C@H](CCCNC(=N)N)NC(=O)[C@H](CCCCNC(=O)COCCOCCNC(=O)COCCOCCNC(=O)CC[C@H](NC(=O)CC[C@H](NC(=O)CCCCCCCCCCCCCCCCCCC(=O)O)C(=O)O)C(=O)O)NC(=O)[C@@H](NC(=O)[C@H](CC(=O)O)NC(=O)[C@H](CC(C)C)NC(=O)[C@](C)(Cc1ccccc1)NC(=O)[C@H](CCCCN)NC(=O)[C@H](CO)NC(=O)[C@@H](NC(=O)[C@H](CC(=O)O)NC(=O)[C@H](CO)NC(=O)[C@@H](NC(=O)[C@H](Cc1ccccc1)NC(=O)[C@@H](NC(=O)CNC(=O)[C@H](CCC(N)=O)NC(=O)C(C)(C)NC(=O)[C@@H](N)Cc1c[nH]cn1)[C@@H](C)O)[C@@H](C)O)C(C)C)[C@@H](C)O)C(C)C)C(=O)N[C@@H](CC(C)C)C(=O)N[C@@H](CCC(=O)O)C(=O)NC(C)(C)C(=O)NCC(N)=O
B4: Peptide 466 (peptide)
peptide: H[Aib]QGTFTSDVSK[αMeF]LDTK([AEEA-AEEA-γGlu-C18 diacid])RAQDFVQWLLE[Aib]G-NH2
modifications: N-terminus assumed
SMILES: CC(C)C[C@H](NC(=O)[C@H](Cc1c[nH]c2ccccc12)NC(=O)[C@H](CCC(N)=O)NC(=O)[C@@H](NC(=O)[C@H](Cc1ccccc1)NC(=O)[C@H](CC(=O)O)NC(=O)[C@H](CCC(N)=O)NC(=O)[C@H](C)NC(=O)[C@H](CCCNC(=N)N)NC(=O)[C@H](CCCCNC(=O)COCCOCCNC(=O)COCCOCCNC(=O)CC[C@H](NC(=O)CCCCCCCCCCCCCCCCC(=O)O)C(=O)O)NC(=O)[C@@H](NC(=O)[C@H](CC(=O)O)NC(=O)[C@H](CC(C)C)NC(=O)[C@](C)(Cc1ccccc1)NC(=O)[C@H](CCCCN)NC(=O)[C@H](CO)NC(=O)[C@@H](NC(=O)[C@H](CC(=O)O)NC(=O)[C@H](CO)NC(=O)[C@@H](NC(=O)[C@H](Cc1ccccc1)NC(=O)[C@@H](NC(=O)CNC(=O)[C@H](CCC(N)=O)NC(=O)C(C)(C)NC(=O)[C@@H](N)Cc1c[nH]cn1)[C@@H](C)O)[C@@H](C)O)C(C)C)[C@@H](C)O)C(C)C)C(=O)N[C@@H](CC(C)C)C(=O)N[C@@H](CCC(=O)O)C(=O)NC(C)(C)C(=O)NCC(N)=O
B5: Peptide 470 (peptide)
peptide: H[Aib]QGTFTSDVSK[αMeF]LDKK([AEEA-AEEA-γGlu-C20 diacid])RARDFVQWLL[Aib]E-NH2
modifications: N-terminus assumed
SMILES: CC(C)C[C@H](NC(=O)[C@H](Cc1c[nH]c2ccccc12)NC(=O)[C@H](CCC(N)=O)NC(=O)[C@@H](NC(=O)[C@H](Cc1ccccc1)NC(=O)[C@H](CC(=O)O)NC(=O)[C@H](CCCNC(=N)N)NC(=O)[C@H](C)NC(=O)[C@H](CCCNC(=N)N)NC(=O)[C@H](CCCCNC(=O)COCCOCCNC(=O)COCCOCCNC(=O)CC[C@H](NC(=O)CCCCCCCCCCCCCCCCCCC(=O)O)C(=O)O)NC(=O)[C@H](CCCCN)NC(=O)[C@H](CC(=O)O)NC(=O)[C@H](CC(C)C)NC(=O)[C@](C)(Cc1ccccc1)NC(=O)[C@H](CCCCN)NC(=O)[C@H](CO)NC(=O)[C@@H](NC(=O)[C@H](CC(=O)O)NC(=O)[C@H](CO)NC(=O)[C@@H](NC(=O)[C@H](Cc1ccccc1)NC(=O)[C@@H](NC(=O)CNC(=O)[C@H](CCC(N)=O)NC(=O)C(C)(C)NC(=O)[C@@H](N)Cc1c[nH]cn1)[C@@H](C)O)[C@@H](C)O)C(C)C)C(C)C)C(=O)N[C@@H](CC(C)C)C(=O)NC(C)(C)C(=O)N[C@@H](CCC(=O)O)C(N)=O
B6: Peptide 472 (peptide)
peptide: H[Aib]QGTFTSDVSK[αMeF]LDKK([AEEA-AEEA-γGlu-C18 diacid])RARDFVQWLL[Aib]E-NH2
modifications: N-terminus assumed
SMILES: CC(C)C[C@H](NC(=O)[C@H](Cc1c[nH]c2ccccc12)NC(=O)[C@H](CCC(N)=O)NC(=O)[C@@H](NC(=O)[C@H](Cc1ccccc1)NC(=O)[C@H](CC(=O)O)NC(=O)[C@H](CCCNC(=N)N)NC(=O)[C@H](C)NC(=O)[C@H](CCCNC(=N)N)NC(=O)[C@H](CCCCNC(=O)COCCOCCNC(=O)COCCOCCNC(=O)CC[C@H](NC(=O)CCCCCCCCCCCCCCCCC(=O)O)C(=O)O)NC(=O)[C@H](CCCCN)NC(=O)[C@H](CC(=O)O)NC(=O)[C@H](CC(C)C)NC(=O)[C@](C)(Cc1ccccc1)NC(=O)[C@H](CCCCN)NC(=O)[C@H](CO)NC(=O)[C@@H](NC(=O)[C@H](CC(=O)O)NC(=O)[C@H](CO)NC(=O)[C@@H](NC(=O)[C@H](Cc1ccccc1)NC(=O)[C@@H](NC(=O)CNC(=O)[C@H](CCC(N)=O)NC(=O)C(C)(C)NC(=O)[C@@H](N)Cc1c[nH]cn1)[C@@H](C)O)[C@@H](C)O)C(C)C)C(C)C)C(=O)N[C@@H](CC(C)C)C(=O)NC(C)(C)C(=O)N[C@@H](CCC(=O)O)C(N)=O
B7: Peptide 465 (peptide)
peptide: H[Aib]QGTFTSDVSK[αMeF]LDLK([AEEA-AEEA-γGlu-γGlu-C18 diacid])RAQDFVQWLL[Aib]T-OH
modifications: N-terminus assumed
SMILES: CC(C)C[C@H](NC(=O)[C@H](CC(=O)O)NC(=O)[C@H](CC(C)C)NC(=O)[C@](C)(Cc1ccccc1)NC(=O)[C@H](CCCCN)NC(=O)[C@H](CO)NC(=O)[C@@H](NC(=O)[C@H](CC(=O)O)NC(=O)[C@H](CO)NC(=O)[C@@H](NC(=O)[C@H](Cc1ccccc1)NC(=O)[C@@H](NC(=O)CNC(=O)[C@H](CCC(N)=O)NC(=O)C(C)(C)NC(=O)[C@@H](N)Cc1c[nH]cn1)[C@@H](C)O)[C@@H](C)O)C(C)C)C(=O)N[C@@H](CCCCNC(=O)COCCOCCNC(=O)COCCOCCNC(=O)CC[C@H](NC(=O)CC[C@H](NC(=O)CCCCCCCCCCCCCCCCC(=O)O)C(=O)O)C(=O)O)C(=O)N[C@@H](CCCNC(=N)N)C(=O)N[C@@H](C)C(=O)N[C@@H](CCC(N)=O)C(=O)N[C@@H](CC(=O)O)C(=O)N[C@@H](Cc1ccccc1)C(=O)N[C@H](C(=O)N[C@@H](CCC(N)=O)C(=O)N[C@@H](Cc1c[nH]c2ccccc12)C(=O)N[C@@H](CC(C)C)C(=O)N[C@@H](CC(C)C)C(=O)NC(C)(C)C(=O)N[C@H](C(=O)O)[C@@H](C)O)C(C)C

Key:
human GLP-1 receptor = human GLP-1 receptor (human, UniProt P43220); test: cell-based or functional assay
human glucagon receptor = human glucagon receptor (human, UniProt P47871); test: cell-based or functional assay

cAMP production EC50 (human GLP-1 receptor) [nM] | cAMP production EC50 (human glucagon receptor) [nM] | Binder
0.117 | 0.0665 | H[Aib]QGTFTSDVSK[αMeF]LDKK([AEEA-AEEA-γGlu-C20 diacid])RAQDFVRWLLAE-NH2 [Peptide 460]
0.102 | 0.0636 | H[Aib]QGTFTSDVSK[αMeF]LDRK([AEEA-AEEA-γGlu-C20 diacid])RARDFVQWLL[Aib]E-NH2 [Peptide 471]
0.0395 | 0.0892 | B1
0.133 | 0.0803 | B2
0.255 | 0.538 | B3
0.0675 | 0.292 | H[Aib]QGTFTSDVSK[αMeF]LDTK([AEEA-AEEA-γGlu-γGlu-C18 diacid])RAQDFVQWLLE[Aib]G-NH2 [Peptide 468]
0.0356 | 0.131 | B4
0.0559 | 0.0303 | B5
0.00763 | 0.0111 | B6
0.485 | 0.436 | B7

— patent US12630600B2 (MEDIMMUNE LIMITED, priority 2022, dated 2026)
